In PMC7223222:

Molecular target: pmE2:pFc2 fusion protein (transmembrane domain-deleted classical swine fever virus envelope glycopro (classical swine fever virus))
Assay: SEC

pmE2:pFc2 fusion protein (transmembrane domain-deleted classical swine fever virus envelope glycopro (Fc fusion)
stoichiometry N: 3
